The values that follow come from publication PMC10359602, “High fidelity DNA strand-separation is the major specificity determinant in DNA methyltransferase CcrM’s catalytic mechanism”.

Data set [1] concerns the target T1, CcrM WT (Caulobacter crescentus, UniProt P0CAW2 1-358). The data set can be described thus: equilibrium Trp fluorescence; 60 uM sinefungin; smaller change than dsDNA; Anisotropy: 10 nM FAM-DNA, 0-1000 nM protein, 30 uM SAH, 100 mM HEPES, 1 mM EDTA, 20 mM NaCl, pH 8, room temperature, 20 min; Trp fluorescence: same buffer plus 2 mM DTT, 500 nM protein, 60 uM sinefungin, 5 uM DNA. To be noted: protein: recombinant; chain copies: 2; single strand.

For data set [2], the target named is T1, CcrM WT. The data set can be described thus: fluorescence anisotropy; 30 uM SAH; Hill h = 2.5; apparent Kd; Anisotropy: 10 nM FAM-DNA, 0-1000 nM protein, 30 uM SAH, 100 mM HEPES, 1 mM EDTA, 20 mM NaCl, pH 8, room temperature, 20 min; Trp fluorescence: same buffer plus 2 mM DTT, 500 nM protein, 60 uM sinefungin, 5 uM DNA. To be noted: protein: recombinant; chain copies: 2; label: 5' 6-FAM on strand 1; blunt. On the technique in general: Polarisation of emitted light reports the rotation of a fluorescent probe.

The target in data set [3] is CcrM R350A (Caulobacter crescentus, UniProt P0CAW2 1-358, R350A). The data set can be described thus: fluorescence anisotropy; 30 uM SAH; Hill h = 1.3; apparent Kd, above tested range 0-1000 nM; Anisotropy: 10 nM FAM-DNA, 0-1000 nM protein, 30 uM SAH, 100 mM HEPES, 1 mM EDTA, 20 mM NaCl, pH 8, room temperature, 20 min; Trp fluorescence: same buffer plus 2 mM DTT, 500 nM protein, 60 uM sinefungin, 5 uM DNA. The settings on record: protein: recombinant; chain copies: 2; label: 5' 6-FAM on strand 1; blunt.

Data set [4] concerns the target T1, CcrM WT. Nature of the data set: fluorescence anisotropy; 30 uM SAH; Hill h = 2.1; apparent Kd; Anisotropy: 10 nM FAM-DNA, 0-1000 nM protein, 30 uM SAH, 100 mM HEPES, 1 mM EDTA, 20 mM NaCl, pH 8, room temperature, 20 min; Trp fluorescence: same buffer plus 2 mM DTT, 500 nM protein, 60 uM sinefungin, 5 uM DNA. To be noted: protein: recombinant; chain copies: 2; label: 5' 6-FAM on strand 1; blunt.

T1 sequence (P0CAW2 whole entry): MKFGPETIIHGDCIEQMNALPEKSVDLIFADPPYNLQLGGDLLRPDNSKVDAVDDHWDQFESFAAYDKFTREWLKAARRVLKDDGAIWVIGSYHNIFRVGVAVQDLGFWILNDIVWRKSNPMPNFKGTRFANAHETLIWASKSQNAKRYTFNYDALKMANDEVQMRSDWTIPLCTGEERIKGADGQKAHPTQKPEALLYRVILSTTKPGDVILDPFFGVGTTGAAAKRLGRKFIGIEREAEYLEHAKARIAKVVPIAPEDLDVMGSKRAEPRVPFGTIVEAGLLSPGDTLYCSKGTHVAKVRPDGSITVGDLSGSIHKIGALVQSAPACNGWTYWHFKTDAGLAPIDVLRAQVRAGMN
Sequence of CcrM R350A (P0CAW2 whole entry R350A): as the sequence (P0CAW2 whole entry) above, with R350A counted along it

In the case of TCACTGTACTCTGACTCGCCTGACATGAC (ssDNA) [cognate ssDNA], in data set [1], the binding result was “binds”.

B1: C1-FAM (dsDNA)
DNA 1: TCACTGTACTCTGACTCGCCTGACATGAC
DNA 2: GTCATGTCAGGCGAGTCAGAGTACAGTGA
modifications: N6-methyl-A at position 14 (5' to 3') of strand 2 (hemimethylated)
In the case of B1, the Kd in data set [2] was determined as 150 ± 5.4 nM; in data set [3] it was 2110 ± 193 nM.

B2: NC-FAM (dsDNA)
DNA 1: TCACTGTACTCTGACTGGCCTGACATGAC
DNA 2: GTCATGTCAGGCCAGTCAGAGTACAGTGA
modifications: N6-methyl-A at position 14 (5' to 3') of strand 2
Take B2: the Kd in data set [4] amounted to 135 ± 7.6 nM.
